Experimental findings from patent US20110076303A1 are described below.

The test addresses Foxn1 having a Flag tag (expressed from the Foxn1 expression vector, CMV promoter, in mouse epidermal cells). The test is described as follows: cell-based or functional assay.

The substance “AFF-4 having a C-Myc tag (expressed from the AFF-4 expression vector, CMV promoter, in mouse epidermal cells)” gave an expression level of luciferase (reporter with a Foxn1 binding region upstream of an SV40 minimum promoter), relative to Foxn1 only = 1 of 5 fold.
